Source: patent publication US20240239855A1 (CYTOKI PHARMA, published 2024)
Like-named read-outs stand apart in the source and are kept apart here.

What was measured:
Experiment in all cases: cell-based or functional assay
[1] = target: T1, human IL-22 receptor (human IL-22Ra and human IL-10Rb) on cells (human, UniProt Q8N6P7 16-574; Q08334 20-325)
T1 sequence (looked up) 1: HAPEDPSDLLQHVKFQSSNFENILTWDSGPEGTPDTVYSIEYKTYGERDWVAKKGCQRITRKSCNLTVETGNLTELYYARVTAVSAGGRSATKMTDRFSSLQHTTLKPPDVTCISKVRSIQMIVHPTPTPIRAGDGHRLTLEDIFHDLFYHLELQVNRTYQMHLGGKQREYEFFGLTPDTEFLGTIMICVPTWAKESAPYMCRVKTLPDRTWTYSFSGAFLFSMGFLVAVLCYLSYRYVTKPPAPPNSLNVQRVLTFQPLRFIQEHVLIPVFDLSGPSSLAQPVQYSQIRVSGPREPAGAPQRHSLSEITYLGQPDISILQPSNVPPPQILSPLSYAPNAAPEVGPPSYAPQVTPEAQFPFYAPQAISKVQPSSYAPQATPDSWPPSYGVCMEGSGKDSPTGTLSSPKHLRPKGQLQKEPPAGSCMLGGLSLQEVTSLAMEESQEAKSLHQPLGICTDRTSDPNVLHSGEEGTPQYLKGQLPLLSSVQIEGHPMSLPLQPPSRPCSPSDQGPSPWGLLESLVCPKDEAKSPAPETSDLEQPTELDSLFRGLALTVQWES
T1 sequence (looked up) 2: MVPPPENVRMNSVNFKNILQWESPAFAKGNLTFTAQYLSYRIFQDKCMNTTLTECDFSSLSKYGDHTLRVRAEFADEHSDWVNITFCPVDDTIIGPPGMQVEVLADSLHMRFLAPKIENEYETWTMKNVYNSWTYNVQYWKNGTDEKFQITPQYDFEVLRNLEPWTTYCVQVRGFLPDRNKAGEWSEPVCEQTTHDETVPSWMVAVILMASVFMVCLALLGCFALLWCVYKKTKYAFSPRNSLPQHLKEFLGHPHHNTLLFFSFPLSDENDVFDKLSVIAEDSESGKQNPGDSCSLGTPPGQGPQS

[2] = target: T1, human IL-22 receptor (human IL-22Ra and …); remark: listed apart in the source
[3] = target: T1, human IL-22 receptor (human IL-22Ra and …); remark: listed apart in the source
[4] = target: T1, human IL-22 receptor (human IL-22Ra and …); remark: listed apart in the source
[5] = target: T1, human IL-22 receptor (human IL-22Ra and …); remark: listed apart in the source
[6] = target: T1, human IL-22 receptor (human IL-22Ra and …); remark: listed apart in the source
[7] = target: T1, human IL-22 receptor (human IL-22Ra and …); remark: listed apart in the source
[8] = target: T1, human IL-22 receptor (human IL-22Ra and …); remark: listed apart in the source

B1: Comparator 12 (ligand)
chain: APISSHCRLDKSNFQQPYITNRTFMLAKEASLCDQNTDVRLIGEKLFHGVSMSERCYLMKQVLQFTLEEVLFPQSDRFQPYMQEVVPFLARLSNRLSTCHIEGDDLHIQRNVQKLKDTVKKLGESGEIKAIGELDLLFMSLRNACI
modifications: C18 diacid attached through linker γGlu-OEG-OEG-C2DA-Ac to Cys 33C
EC50, BHK cell reporter gene assay (STAT3-induced luciferase) [1]: 0.28 nM

B2: Comparator 14 (ligand)
chain: GPISSHCRLDKSNFQQPYITNRTFMLAKEASLADNNTDVRLIGEKLFHGVSMSERCYLMKQVLNFTLEEVLFPQSDRFQPYMQEVVPFLARLSNRLSTCHIEGDDLHIQRNVQKLKDTVKKLGESGEIKAIGELDLLFMSLRNACI
In vitro EC50, BHK cell reporter gene assay (STAT3-induced luciferase) [2]: 0.06 nM
EC50, BHK cell reporter gene assay (STAT3-induced luciferase) [1]: 0.06 nM
EC50, HepG2 cell assay for pSTAT3 (AlphaScreen SureFire STAT3 p-Tyr705) [3]: 4.73 nM

B3: Comparator 19 (ligand)
chain: APISSHCRLDKSNFQQPYITNRTFMLAKEASLADNNTDVRLIGEKLFHGVSMSERCYLMKQVLNFTLEEVLFPQSDRFQPYMQEVVPFLARLSNCLSTCHIEGDDLHIQRNVQKLKDTVKKLGESGEIKAIGELDLLFMSLRNACI
modifications: C18 diacid attached through linker γGlu-OEG-OEG-C2DA-Ac to Cys 95C
EC50, BHK cell reporter gene assay (STAT3-induced luciferase), second laboratory [4]: 0.31 nM
Fold change EC50 compared to hIL-22, BHK cell reporter gene assay, second laboratory [4]: 11 fold

B4: Comparator 2 (ligand)
chain: APISSHCRLDKSNFQQPYITNRTFMLAKEASLADQNTDVRLIGEKLFHGVSMSERCYLMKQVLQFTLEEVLFPQSDRFQPYMQEVVPFLARLSNCLSTCHIEGDDLHIQRNVQKLKDTVKKLGESGEIKAIGELDLLFMSLRNACI
modifications: C18 diacid attached through linker γGlu-OEG-OEG-C2DA-Ac to Cys 95C
EC50, BHK cell reporter gene assay (STAT3-induced luciferase) [5]: 0.36 nM
Fold change EC50 compared to hIL-22, BHK cell reporter gene assay [5]: 5 fold

B5: Derivative 2 (ligand)
chain: CPISSHCRLDKSNFQQPYITNRTFMLAKEASLADNNTDVRLIGEKLFHGVSMSERCYLMKQVLNFTLEEVLFPQSDRFQPYMQEVVPFLARLSNRLSTCHIEGDDLHIQRNVQKLKDTVKKLGESGEIKAIGELDLLFMSLRNACI
modifications: C16 monoacid attached through linker γGlu-OEG-OEG-εLys-αAc to Cys 1C
EC50, BHK cell reporter gene assay (STAT3-induced luciferase), second laboratory [6]: 0.03 nM

B6: Comparator 3 (ligand)
chain: APISSHCRLDKSNFQQPYITNRTFMLAKEASLADNNTDVRLIGEKLFHGVSMSERCYLMKQVLNFTLEEVLFPQSDRFQPYMQEVVPFLARLSNRLSTCHIEGDDCHIQRNVQKLKDTVKKLGESGEIKAIGELDLLFMSLRNACI
modifications: C18 diacid attached through linker γGlu-OEG-OEG-C2DA-Ac to Cys 106C
EC50, BHK cell reporter gene assay (STAT3-induced luciferase), second laboratory [4]: 0.085 nM
Fold change EC50 compared to hIL-22, BHK cell reporter gene assay, second laboratory [4]: 3 fold

B7: Comparator 1 (ligand)
chain: APISSHCRLDKSNFQQPYITNRTFMLAKEASLADQNTDVRLIGEKLFHGVSMSERCYLMKQVLQFTLEEVLFPQSDRFQPYMQEVVPFLARLSNRLSTCHIEGDDCHIQRNVQKLKDTVKKLGESGEIKAIGELDLLFMSLRNACI
modifications: C18 diacid attached through linker γGlu-OEG-OEG-C2DA-Ac to Cys 106C
EC50, BHK cell reporter gene assay (STAT3-induced luciferase) [5]: 0.23 nM
Fold change EC50 compared to hIL-22, BHK cell reporter gene assay [5]: 3 fold

B8: Comparator 11 (ligand)
chain: GAPISSCCRLDKSNFQQPYITNRTFMLAKEASLADQNTDVRLIGEKLFHGVSMSERCYLMKQVLQFTLEEVLFPQSDRFQPYMQEVVPFLARLSNRLSTCHIEGDDLHIQRNVQKLKDTVKKLGESGEIKAIGELDLLFMSLRNACI
modifications: C18 diacid attached through linker γGlu-OEG-OEG-C2DA-Ac to Cys 6C
EC50, BHK cell reporter gene assay (STAT3-induced luciferase) [1]: 1.24 nM

B9: Comparator 18 (ligand)
chain: GPGCPISSHCRLDKSNFQQPYITNRTFMLAKEASLADQNTDVRLIGEKLFHGVSMSERCYLMKQVLQFTLEEVLFPQSDRFQPYMQEVVPFLARLSNRLSTCHIEGDDLHIQRNVQKLKDTVKKLGESGEIKAIGELDLLFMSLRNACI
EC50, BHK cell reporter gene assay (STAT3-induced luciferase) [1]: 0.19 nM

B10: Comparator 17 (ligand)
chain: GPGCPISSHCRLDKSNFQQPYITNRTFMLAKEASLADNNTDVRLIGEKLFHGVSMSERCYLMKQVLNFTLEEVLFPQSDRFQPYMQEVVPFLARLSNRLSTCHIEGDDLHIQRNVQKLKDTVKKLGESGEIKAIGELDLLFMSLRNACI
EC50, BHK cell reporter gene assay (STAT3-induced luciferase) [1]: 0.09 nM
EC50, HepG2 cell assay for pSTAT3 (AlphaScreen SureFire STAT3 p-Tyr705) [3]: 12.1 nM

B11: Comparator 9 (ligand)
chain: GPGCPISSHCRLDKSNFQQPYITNRTFMLAKEASLADQNTDVRLIGEKLFHGVSMSERCYLMKQVLQFTLEEVLFPQSDRFQPYMQEVVPFLARLSNRLSTCHIEGDDLHIQRNVQKLKDTVKKLGESGEIKAIGELDLLFMSLRNACI
modifications: C18 diacid attached through linker γGlu-OEG-OEG-C2DA-Ac to Cys 1C
EC50, BHK cell reporter gene assay (STAT3-induced luciferase) [1]: 0.61 nM
EC50, HepG2 cell assay for pSTAT3 (AlphaScreen SureFire STAT3 p-Tyr705) [3]: 14.9 nM

B12: Comparator 6 (ligand)
chain: GPGCPISSHCRLDKSNFQQPYITNRTFMLAKEASLADNNTDVRLIGEKLFHGVSMSERCYLMKQVLNFTLEEVLFPQSDRFQPYMQEVVPFLARLSNRLSTCHIEGDDLHIQRNVQKLKDTVKKLGESGEIKAIGELDLLFMSLRNACI
modifications: C16 diacid attached through linker γGlu-OEG-OEG-C2DA-Ac to Cys 1C
fold reduction in potency compared to hIL-22, BHK cell reporter gene assay [7]: 4 fold
In vitro EC50, BHK cell reporter gene assay (STAT3-induced luciferase) [2]: 0.3 nM
EC50, BHK cell reporter gene assay (STAT3-induced luciferase) [1]: 0.3 nM

B13: Derivative 1 (ligand)
chain: GPGCPISSHCRLDKSNFQQPYITNRTFMLAKEASLADNNTDVRLIGEKLFHGVSMSERCYLMKQVLNFTLEEVLFPQSDRFQPYMQEVVPFLARLSNRLSTCHIEGDDLHIQRNVQKLKDTVKKLGESGEIKAIGELDLLFMSLRNACI
modifications: C16 monoacid attached through linker γGlu-OEG-OEG-εLys-αAc to Cys 1C (position 1 of hIL-22; position 4 in the sequence listing entry)
EC50, BHK cell reporter gene assay (STAT3-induced luciferase) [8]: 0.06 nM
In vitro EC50, BHK cell reporter gene assay (STAT3-induced luciferase) [2]: 0.06 nM

B14: Comparator 4 (ligand)
chain: GPGCPISSHCRLDKSNFQQPYITNRTFMLAKEASLADNNTDVRLIGEKLFHGVSMSERCYLMKQVLNFTLEEVLFPQSDRFQPYMQEVVPFLARLSNRLSTCHIEGDDLHIQRNVQKLKDTVKKLGESGEIKAIGELDLLFMSLRNACI
modifications: C18 diacid attached through linker γGlu-OEG-OEG-C2DA-Ac to Cys 1C
fold reduced potency compared to hIL-22, HepG2 cell assay for pSTAT3 [7]: 2.5 fold
fold reduction in potency compared to hIL-22, BHK cell reporter gene assay [7]: 7 fold
In vitro EC50, BHK cell reporter gene assay (STAT3-induced luciferase) [2]: 0.48 nM
EC50, BHK cell reporter gene assay (STAT3-induced luciferase) [1]: 0.48 nM
EC50, HepG2 cell assay for pSTAT3 (AlphaScreen SureFire STAT3 p-Tyr705) [3]: 10.1 nM

B15: Comparator 13 (ligand)
chain: GPGCPISSHCRLDKSNFQQPYITNRTFMLAKEASLADQNTDVRLIGEKLFHGVSMSERCYLMKQVLQFTLEEVLFPQSDRFQPYMQEVVPFLARLSNRLSTCHIEGDDLHIQRNVQKLKDTVKKLGESGEIKAIGELDLLFMSLRNACI
modifications: C16 diacid attached through linker γGlu-OEG-OEG-C2DA-Ac to Cys 1C
EC50, BHK cell reporter gene assay (STAT3-induced luciferase) [1]: 0.37 nM

B16: Comparator 7 (ligand)
chain: GPGSGSGSCGSGSGSAPISSHCRLDKSNFQQPYITNRTFMLAKEASLADNNTDVRLIGEKLFHGVSMSERCYLMKQVLNFTLEEVLFPQSDRFQPYMQEVVPFLARLSNRLSTCHIEGDDLHIQRNVQKLKDTVKKLGESGEIKAIGELDLLFMSLRNACI
modifications: C16 diacid attached through linker γGlu-OEG-OEG-C2DA-Ac to Cys -7C (in the N-terminal peptide)
EC50, BHK cell reporter gene assay (STAT3-induced luciferase) [1]: 0.18 nM

B17: Comparator 5 (ligand)
chain: GPGSGSGSCGSGSGSAPISSHCRLDKSNFQQPYITNRTFMLAKEASLADNNTDVRLIGEKLFHGVSMSERCYLMKQVLNFTLEEVLFPQSDRFQPYMQEVVPFLARLSNRLSTCHIEGDDLHIQRNVQKLKDTVKKLGESGEIKAIGELDLLFMSLRNACI
modifications: C18 diacid attached through linker γGlu-OEG-OEG-C2DA-Ac to Cys -7C (in the N-terminal peptide)
EC50, HepG2 cell assay for pSTAT3 (AlphaScreen SureFire STAT3 p-Tyr705) [3]: 6.98 nM
